According to IntAct's records for PubMed 11259577:

B1: Insulin receptor substrate 1 (Rattus norvegicus (Rat)), P35570 (parent)
chain: MASPPDTDGFSDVRKVGYLRKPKSMHKRFFVLRAASEAGGPARLEYYENEKKWRHKSSAPKRSIPLESCFNINKRADSKNKHLVALYTRDEHFAIAADSEAEQDSWYQALLQLHNRAKAHHDGAGGGCGGSCSGSSGVGEAGEDLSYDTGPGPAFKEVWQVILKPKGLGQTKNLIGIYRLCLTSKTISFVKLNSEAAAVVLQLMNIRRCGHSENFFFIEVGRSAVTGPGEFWMQVDDSVVAQNMHETILEAMRAMSDEFRPRTKSQSSSSCSNPISVPLRRHHLNNPPPSQVGLTRRSRTESITATSPASMVGGKPGSFRVRASSDGEGTMSRPASVDGSPVSPSTNRTHAHRHRGSSRLHPPLNHSRSIPMPSSRCSPSATSPVSLSSSSTSGHGSTSDCLFPRRSSASVSGSPSDGGFISSDEYGSSPCDFRSSFRSVTPDSLGHTPPARGEEELSNYICMGGKGASTLTAPNGHYILSRGGNGHRYIPGATMGTSPALTGDEAAGAADLDNRFRKRTHSAGTSPTISHQKTPSQSSVVSIEEYTEMMPAAYPPGGGSGGRLPGYRHSAFVPTHSYPEEGLEMHHLERRGGHHRPDSSNLHTDDGYMPMSPGVAPVPSNRKGNGDYMPMSPKSVSAPQQIINPIRRHPQRVDPNGYMMMSPSGSCSPDIGGGSCSSSSISAAPSGSSYGKPWTNGVGGHHTHALPHAKPPVESGGGKLLPCTGDYMNMSPVGDSNTSSPSECYYGPEDPQHKPVLSYYSLPRSFKHTQRPGEPEEGARHQHLRLSSSSGRLRYTATAEDSSSSTSSDSLGGGYCGARPESSVTHPHHHALQPHLPRKVDTAAQTNSRLARPTRLSLGDPKASTLPRVREQQQQQQQQQQSSLHPPEPKSPGEYVNIEFGSGQPGYLAGPATSRSSPSVRCLPQLHPAPREETGSEEYMNMDLGPGRRATWQESGGVELGRVGPAPPGAASICRPTRSVPNSRGDYMTMQIGCPRQSYVDTSPVAPVSYADMRTGIAAEKVSLPRTTGAAPPPSSTASASASVTPQGAAEQAAHSSLLGGPQGPGGMSAFTRVNLSPNHNQSAKVIRADTQGCRRRHSSETFSAPTRAANTVSFGAGAAGGGSGGGSEDVKRHSSASFENVWLRPGDLGGASKESAPGCGAAGGLEKSLNYIDLDLVKDVKQHPQDCPSQQQSLPPPPPHQPLGSNEGSSPRRSSEDLSTYASINFQKQPEDRQ
partner: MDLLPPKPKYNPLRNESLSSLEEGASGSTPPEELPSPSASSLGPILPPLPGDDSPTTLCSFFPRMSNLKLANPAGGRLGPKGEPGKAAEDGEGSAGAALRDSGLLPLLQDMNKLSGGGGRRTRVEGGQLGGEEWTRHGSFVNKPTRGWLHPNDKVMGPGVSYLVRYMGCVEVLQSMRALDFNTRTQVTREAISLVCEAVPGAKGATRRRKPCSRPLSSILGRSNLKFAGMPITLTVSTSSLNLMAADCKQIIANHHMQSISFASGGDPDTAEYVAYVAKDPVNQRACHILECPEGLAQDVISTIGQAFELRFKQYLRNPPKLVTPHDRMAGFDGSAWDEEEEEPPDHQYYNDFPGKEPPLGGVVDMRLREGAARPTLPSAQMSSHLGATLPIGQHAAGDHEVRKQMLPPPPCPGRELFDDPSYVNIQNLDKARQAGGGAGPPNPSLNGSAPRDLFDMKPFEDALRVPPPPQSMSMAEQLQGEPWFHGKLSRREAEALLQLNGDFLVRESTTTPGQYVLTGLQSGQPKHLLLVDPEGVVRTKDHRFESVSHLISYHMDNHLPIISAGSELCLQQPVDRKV

Variants of: B1
Conditions: with shc1_mouse Shc1, P98083

Variant	effect of a mutation on the interaction
Y895F	with no effect
